Several values for one entry are separate records, joined by “and”; a condition that tells them apart may be missing. Identical values can stand only once.
Assays:
[1] = molecular target: truncated kinesin-1 rigor mutant (KIF5B(1–490)) with SpyTag003 at the C terminus (UniProt P33176); experiment: mass photometry
[2] = molecular target: BicD2(25–400) with SpyCatcher003 at the C terminus (mouse) (UniProt Q921C5); experiment: mass photometry
[3] = molecular target: BicD2–superfolder green fluorescent protein (sfGFP), amino acids 25–400 (UniProt Q921C5); experiment: pull-down + other: mass photometry
Chain of BicD2–superfolder green fluorescent protein (sfGFP), amino acids 25–400 (Q921C5 25-400): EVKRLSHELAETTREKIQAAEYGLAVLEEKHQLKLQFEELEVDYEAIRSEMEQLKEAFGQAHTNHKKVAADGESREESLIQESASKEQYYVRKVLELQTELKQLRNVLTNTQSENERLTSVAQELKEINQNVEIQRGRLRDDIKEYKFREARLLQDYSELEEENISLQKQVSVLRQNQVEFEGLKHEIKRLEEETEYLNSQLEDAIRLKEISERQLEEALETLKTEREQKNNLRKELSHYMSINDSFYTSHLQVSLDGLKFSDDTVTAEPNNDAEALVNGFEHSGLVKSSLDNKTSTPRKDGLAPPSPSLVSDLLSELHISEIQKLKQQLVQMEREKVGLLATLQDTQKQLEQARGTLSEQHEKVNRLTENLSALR

[4] = molecular target: BicD2–rigor kinesin conjugate (BicD2(25–400)–SpyCatcher003 covalently linked to KIF5B(1–490) rigor mutant–SpyTag003) (mouse | not stated) (UniProt Q921C5); experiment: three-colour single-molecule TIRF co-localization
Chain of BicD2–rigor kinesin conjugate (BicD2(25–400)–SpyCatcher003 covalently linked to KIF5B(1–490) rigor mutant–SpyTag003) (mouse | not stated) (Q921C5 25-400, change not shown): as the sequence (Q921C5 25-400) above

[5] = molecular target: Biotinylated BicD2 (amino acids 25–400) (mouse) (UniProt Q921C5); experiment: three-colour single-molecule TIRF co-localization
Chain of Biotinylated BicD2 (amino acids 25–400) (mouse) (Q921C5 25-400): as above

mass photometry = molecular target: the molecule itself; experiment: mass photometry

## BicD2(25–400) with SpyCatcher003 at the C terminus (from UniProt Q921C5 25-400) (domain or fragment)
[1]
  stoichiometry N (BicD2:rigor kinesin (2:2)): 1
[2]
  stoichiometry N: 2

## cytoplasmic dynein from rat-brain lysate (complex)
[3]
  stoichiometry N (dynein per DDB complex): 1 and 2

## recombinant full-length human cytoplasmic dynein-1 complex co-expressed with its five accessory chains (from UniProt Q14204;Q13409;O43237;P63172;P63167;Q9NP97)
[4]
  frequency of three-colour dynein co-localization: 0.028
[5]
  frequency of three-colour dynein co-localization: 0.018

B1: truncated kinesin-1 rigor mutant (KIF5B(1–490)) with SpyTag003 at the C terminus (domain or fragment)
chain: MADLAESNIKVMCRFRPLNESEVNRGDKYIAKFQGEDTVVIACKPYAFDRVFQSSTSQEQVYNDAAKKIVKDVLEGYNGTIFAYGQTSSGKNHTMEGKLHDPEGMGIIPRIVQDIFNYIYSMDENLEFHIKVSYFEIYLDKIRDLLDVSKTNLSVHEDKNRVPYVKGATERFVSSPDEVMDTIDEGKSNRHVAVTNMNEHSSRSHSIFLINVKQENTQTEQKLSGKLYLVDLAGSEKVSKTGAEGAVLDEAKNINKSLSALGNVISALAEGSTYVPYRDSKMTRILQDSLGGNARTTIVICCSPSSYNESETKSTLLFGQRAKTIKNTVSVNVELTAEQWKKKYEKEKEKNKILRNTIQWLENELNRWRNGETVPIDEQFDKEKANLEAFTVDKDITLTNDKPATAIGVIGNFTDAERRKAEEEIAKLYKQLDDKDEEINQQSQLVEKLKTQMLDQEELLASTRRDQDNMQAELNRLQAENDASKEEVKE
modifications: cyanine 5 label (Fig. 5d) or CF488 label (Fig. 5h)
Mass photometry
  stoichiometry N: 2

From article PMC12992115 (Nature Cell Biology, 2026)
